This assay relates to Male ICR-Swiss mice. The assay can be described thus: Intraperitoneal administration of Hu-MEPE and PTH (1-34) into mice, serum and urine assays. The note with it: for serum phosphate: vehicle 11.94; for serum 1,25-dihydroxy vitamin-D3: vehicle 25.2; for serum alkaline phosphatase: vehicle 65.06. The assay is classed as in vivo. Here is the method: Intraperitoneal administration of Hu-MEPE and PTH (1-34) into mice. Male ICR-Swiss mice were used as recipients for intraperitoneal administration (100 μl) of 0.1% phosphate-buffered saline/0.1% bovine serum albumin (vehicle) and experimental conditions (Hu-MEPE and PTH 1-34) dissolved in 100 μL of vehicle. Two separate (repeat) experiments were conducted consisting of four groups with 6 and 7 animals per group. The control group was administered with 100 μL of vehicle (Group-1). Group-2 consisted of animals administered with 0.8 μg/injection of parathyroid hormone (PTH 1-34). Group 3 were injected with 0.4 μg/injection of Hu-MEPE and Group-4 with 4 μg/injection of Hu-MEPE. On day one, three bolus injections were given at 0, 3 h, and 6 h. Serum samples were then collected via retro-orbital bleed one hour after the 6 h bolus administration. The next day or 30 hours after the first bolus a fourth bolus (same amount) was given and after 1 h the animals were sacrificed and serum prepared after cardiac exsanguination. The total amounts of PTH and MEPE administered over the 30 h were 80 μg/kg/30 h PTH 1-34, 40 μg/kg/30 h Hu-MEPE (MEPE-40) and 400 μg/kg/30 h Hu-MEPE (MEPE-400). Each group was placed in a separate metabolic cage and urine was collected for the 6-hour period. After the first 6-hour urine collection mice were replaced in thoroughly cleaned metabolic cages for the remaining 24 hours. The second 24-hour urine was collected immediately after the animals were sacrificed. The urine volumes for the second and first collections were measured. Collecting urine samples from large numbers of small mice over the time frame of the experiment was not feasible. Therefore, urine samples from each group (n=7) were pooled and volumes measured via a specially designed collecting duct in the metabolic cage. To ensure reproducibility the experiment was repeated twice (the same changes occurred). To calculate the fractional excretion of phosphate (FEP) the following equation was used: 100−(100×(1−(A/B))) where A=(urine phosphorus in mg/dL)×(serum creatinine in mg/dL) and B=(urine creatinine in mg/dL)×(serum phosphorus in mg/dL). To calculate renal phosphorus clearance (RPC) in mL/minute following computation was used: (urine phosphorus in mg/dL)×(urinary volume in mL)/((serum phosphorus in mg/dL)×(time of collection in minutes)). The phosphate excretion index (PEI) was calculated using the same method described by Shimada et al. (Cloning and characterization of FGF23 as a causative factor of tumor-induced osteomalacia, Proc Natl Acad Sci USA 98:6500-6505, 2001) using the following formula: ((urinary concentration of phosphorus in mg/dL)/(serum concentration of phosphorus in mg/dL))/(total urinary creatinine in mg).
Serum and urine assays. Serum and urine assays for phosphate, calcium, chloride, potassium, creatinine, glucose and alkaline phosphatase were accomplished using 96 well format KC4-spectrophotometer multiplate kinetic/end-point analyses using routine methods and diagnostic-kits Sigma-Diagnostics). Serum 1,25-dihydroxy vitamin-D3 levels were estimated using the method of Reinhardt, et al. (A microassay for 1,25-dihydroxyvitamin D not requiring high performance liquid chromatography: application to clinical studies, J Clin Endocrinol Metab 58:91-98, 1984). Analysis of data for fractional excretion of phosphate (FEP) was carried out following the same method described previously by Shimada et al. (Mutant FGF-23 responsible for autosomal dominant hypophosphatemic rickets is resistant to proteolytic cleavage and causes hypophosphatemia in vivo, Endocrinology 143:3179-82, 2002) for FGF23 bolus administration studies and by Nesbitt et al. (Crosstransplantation of kidneys in normal and Hyp mice: Evidence that the Hyp mouse phenotype is unrelated to an intrinsic renal defect, J Clin Invest 89:1453-59, 1992) for renal cross-transplantation experiments in Hyp mice.
Statistical methods. […]

B1: Hu-MEPE: purified insect expressed full-length recombinant human MEPE (Matrix Extracellular Phosphoglycoprotein) (protein)
chain: PTFQPQTEKTKQSCVEEQRQEEKNKDNIGFHHLGKRINQELSSKENIVQERKKDLSLSEASENKGSSKSQNYFTNRQRLNKEYSISNKENTHNGLRMSIYPKSTGNKGFEDGDDAISKLHDQEEYGAALIRNNMQHIMGPVTAIKLLGEENKENTPRNVLNIIPASMNYAKAHSKDKKKPQRDSQAQKSPVKSKSTHRIQHNIDYLKHLSKVKKIPSDFEGSGYTDLQERGDNDISPFSGDGQPFKDIPGKGEATGPDLEGKDIQTGFAGPSEAESTHLDTKKPGYNEIPEREENGGNTIGTRDETAKEADAVDVSLVEGSNDIMGSTNFKELPGREGNRVDAGSQNAHQGKVEFHYPPAPSKEKRKEGSSDAAESTNYNEIPKNGKGSTRKGVDHSNRNQATLNEKQRFPSKGKSQGLPIPSRGLDNEIKNEMDSFNGPSHENIITHGRKYHYVPHRQNNSTRNKGMPQGKGSWGRQPHSNRRFSSRRRDDSSESSDSGSSSESDGD
Consider B1, for which the urine phosphate (7 h, MEPE-40 i.p., vehicle 31.8) stood at 41.0 mg/dL; the urine phosphate (7 h, MEPE-400 i.p., vehicle 31.8) turned out to be 56.1 mg/dL; the urine phosphate (31 h second urine, MEPE400, vehicle 175.9) amounted to 297.4 mg/dL. In addition, the “fractional excretion of phosphate (FEP)” value by setting is: (7 h, MEPE-400, vehicle 7.8%) 14.43%; (31 h, MEPE-400, vehicle 28.7%) 65.0%. The serum phosphate is given as 10.6 mg/dL (31 h, MEPE-40 (40 ug/kg/30 h) i.p., not statistically significant) and 8.23 mg/dL (31 hours, MEPE-400 (400 ug/kg/30 h) i.p.). Further, the “serum 1,25-dihydroxy vitamin-D3” value reads like this: (31 h, MEPE-40, pooled) 31.5 pg/mL; (31 h, MEPE-400, pooled) 45.05 pg/mL. The serum alkaline phosphatase by setting is: (31 h, MEPE-40) 45.63 U/L; (31 h, MEPE-400) 46.31 U/L. In addition, under “31 h, low-dose MEPE-40”, the “urine phosphate vs vehicle” value is recorded as “not significantly different”. For the same molecule, the “serum phosphate vs vehicle” value (after 7 hours, i.p., PTH and MEPE animals) is “no significant differences”. Further, for the setting “after 7 hours, PTH 80 ug/kg/30 h, low Hu-MEPE dose”, the “serum calcium vs vehicle” value is recorded as “not significantly different”. The FEP vs vehicle entry (low dose MEPE-40) is recorded as “not significantly different”.
